According to US20240352090A1, “USE OF PROTEIN SEQUENCE CAPABLE OF BINDING TO SUBSTRATE IN PREPARATION OF PRODUCT FOR INHIBITING FIBRIN ASSEMBLY” (NANJING UNIVERSITY, priority 2021, published 2024):

Tests used:
fibrin [1] = biological target: T1, fibrin (Homo sapiens, UniProt P02671); assay: fibrin aggregation, light scattering / A350 kinetic curve; assay type: biochemical; conditions: 3.3 μM Fibrinogen, 2.5 U/ml thrombin, ±5 mM CaCl2, 25° C., different doses
T1 construct: Thrombin cleaves the α and γ subunits of fibrin, exposing fibrinopeptide A (Knob A) and fibrinopeptide B (Knob B)
T1 sequence (P02671 36-866 limits assumed): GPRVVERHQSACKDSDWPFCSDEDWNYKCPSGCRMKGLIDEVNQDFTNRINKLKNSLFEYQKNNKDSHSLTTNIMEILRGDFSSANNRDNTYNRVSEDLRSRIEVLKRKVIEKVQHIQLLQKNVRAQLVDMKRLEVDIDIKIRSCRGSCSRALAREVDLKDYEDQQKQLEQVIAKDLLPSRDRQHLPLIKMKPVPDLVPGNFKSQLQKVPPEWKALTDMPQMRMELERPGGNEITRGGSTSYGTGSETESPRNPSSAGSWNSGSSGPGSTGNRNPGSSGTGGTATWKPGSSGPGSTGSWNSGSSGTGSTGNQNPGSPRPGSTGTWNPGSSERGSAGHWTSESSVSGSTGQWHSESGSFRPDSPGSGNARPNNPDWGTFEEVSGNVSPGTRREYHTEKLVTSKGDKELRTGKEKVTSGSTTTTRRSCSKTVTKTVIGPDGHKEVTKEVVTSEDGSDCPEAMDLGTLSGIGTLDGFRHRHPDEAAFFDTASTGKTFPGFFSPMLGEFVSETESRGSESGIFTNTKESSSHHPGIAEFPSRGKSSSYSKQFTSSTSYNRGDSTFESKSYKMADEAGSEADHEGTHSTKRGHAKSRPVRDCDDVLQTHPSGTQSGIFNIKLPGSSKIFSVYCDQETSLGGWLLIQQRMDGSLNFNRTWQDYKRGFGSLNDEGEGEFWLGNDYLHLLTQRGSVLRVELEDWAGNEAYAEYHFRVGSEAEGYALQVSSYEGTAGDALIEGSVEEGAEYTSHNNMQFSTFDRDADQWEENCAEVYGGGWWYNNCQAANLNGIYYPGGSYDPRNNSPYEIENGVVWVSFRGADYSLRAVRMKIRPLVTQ
T1 sequence (P02675 45-491 partner limits assumed): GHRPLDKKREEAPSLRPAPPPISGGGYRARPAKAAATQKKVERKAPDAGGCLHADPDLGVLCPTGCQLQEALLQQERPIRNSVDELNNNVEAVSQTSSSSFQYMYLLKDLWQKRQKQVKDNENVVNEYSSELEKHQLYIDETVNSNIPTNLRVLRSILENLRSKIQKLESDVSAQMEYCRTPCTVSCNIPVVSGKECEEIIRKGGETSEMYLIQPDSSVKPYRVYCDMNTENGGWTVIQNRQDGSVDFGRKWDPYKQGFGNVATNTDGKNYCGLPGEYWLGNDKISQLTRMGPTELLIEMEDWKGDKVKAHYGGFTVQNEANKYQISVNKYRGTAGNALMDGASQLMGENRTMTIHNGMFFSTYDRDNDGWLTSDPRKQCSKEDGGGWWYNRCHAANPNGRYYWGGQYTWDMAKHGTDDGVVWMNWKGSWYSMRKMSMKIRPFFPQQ
T1 sequence (P02679 27-453 partner): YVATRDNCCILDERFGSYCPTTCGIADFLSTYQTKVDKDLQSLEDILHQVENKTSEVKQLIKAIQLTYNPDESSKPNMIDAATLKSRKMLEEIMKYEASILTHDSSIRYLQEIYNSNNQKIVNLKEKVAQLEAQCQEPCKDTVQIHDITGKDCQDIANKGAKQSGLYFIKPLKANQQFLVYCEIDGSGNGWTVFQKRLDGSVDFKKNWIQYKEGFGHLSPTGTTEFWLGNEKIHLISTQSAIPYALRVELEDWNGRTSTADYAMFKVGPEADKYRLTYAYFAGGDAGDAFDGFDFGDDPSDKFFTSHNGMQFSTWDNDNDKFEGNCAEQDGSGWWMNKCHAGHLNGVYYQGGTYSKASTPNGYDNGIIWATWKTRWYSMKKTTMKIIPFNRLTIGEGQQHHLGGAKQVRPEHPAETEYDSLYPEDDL
Experimental: Multifunctional enzyme marker M200PRO detected the light scattering process, and the instrument excitation light was adjusted to 350 nm and emission light to 350 nm. 3.3 μM of Fibrinogen in the control group, 3.3 μM of Fibrinogen and 2.5 U/ml of thrombin in the model group and 3.3 μM of Fibrinogen and 2.5 U/ml thrombin and different dose of Fibrinogen related protein 1 (FGL1). All the above systems were in 20 mM Tris-HCl, pH 7.4, 150 mM NaCl±5 mM CaCl2 solution in a 100 μl/well (96-well plate). The kinetic curve was measured by assaying every minute at 25° C.
Multifunctional enzyme marker M200PRO detected the light scattering process; the instrument excitation light was adjusted to 350 nm, and the emission light was adjusted to 350 nm. 3.3 μM of Fibrinogen in the control group, 3.3 μM of Fibrinogen and 2.5 U/ml of thrombin in the model group, and 3.3 μM of Fibrinogen and 2.5 U/ml thrombin and different dose of fibrinogen structural domain (FD). The above systems were in 20 mM Tris-HCl, pH 7.4, 150 mM NaCl±5 mM CaCl2 solution. The kinetic curves were measured at 25° C. by detecting the A350 absorption values every minute.

[2] = system: thrombin-induced thrombosis model; assay: thrombin-induced thrombosis model, plasmid injection and overexpression; assay type: in vivo, BALB/c mice; conditions: expression plasmid 100 μg per mouse tail vein, overexpression; thrombin 15 U per mouse; deaths within 1 hour
Experimental: Construct FGL1 expression plasmid with pcDNA3.1 vector, inject the plasmid into the tail vein of mice, 100 μg/2 ml PBS/per mouse, extract the plasma of the mice after 18 hours, and detect the overexpressed FGL1 content in the plasma by ELISA;
Thrombin 15 U/200 μl PBS/per mouse was injected into the tail vein for modelling, and the number of mice in each group that died within 1 hour after injection was recorded to calculate the protection rate of Fibrinogen like protein 1 (FGL1) overexpression.
The specific operation methods were the same as those described previously for the protective effects of overexpression of FGL1.

fibrin aggregates [3] = biological target: T2, fibrin aggregates (Homo sapiens, UniProt P02671); assay: synergistic dissolving of fibrin aggregates with tissue plasminogen activator tPA; assay type: biochemical; conditions: 2 nM tPA plus different doses, added after 1 h of fibrin formation
T2 construct: Thrombin cleaves the α and γ subunits of fibrin, exposing fibrinopeptide A (Knob A) and fibrinopeptide B (Knob B)
T2 sequence (P02671 36-866 limits assumed): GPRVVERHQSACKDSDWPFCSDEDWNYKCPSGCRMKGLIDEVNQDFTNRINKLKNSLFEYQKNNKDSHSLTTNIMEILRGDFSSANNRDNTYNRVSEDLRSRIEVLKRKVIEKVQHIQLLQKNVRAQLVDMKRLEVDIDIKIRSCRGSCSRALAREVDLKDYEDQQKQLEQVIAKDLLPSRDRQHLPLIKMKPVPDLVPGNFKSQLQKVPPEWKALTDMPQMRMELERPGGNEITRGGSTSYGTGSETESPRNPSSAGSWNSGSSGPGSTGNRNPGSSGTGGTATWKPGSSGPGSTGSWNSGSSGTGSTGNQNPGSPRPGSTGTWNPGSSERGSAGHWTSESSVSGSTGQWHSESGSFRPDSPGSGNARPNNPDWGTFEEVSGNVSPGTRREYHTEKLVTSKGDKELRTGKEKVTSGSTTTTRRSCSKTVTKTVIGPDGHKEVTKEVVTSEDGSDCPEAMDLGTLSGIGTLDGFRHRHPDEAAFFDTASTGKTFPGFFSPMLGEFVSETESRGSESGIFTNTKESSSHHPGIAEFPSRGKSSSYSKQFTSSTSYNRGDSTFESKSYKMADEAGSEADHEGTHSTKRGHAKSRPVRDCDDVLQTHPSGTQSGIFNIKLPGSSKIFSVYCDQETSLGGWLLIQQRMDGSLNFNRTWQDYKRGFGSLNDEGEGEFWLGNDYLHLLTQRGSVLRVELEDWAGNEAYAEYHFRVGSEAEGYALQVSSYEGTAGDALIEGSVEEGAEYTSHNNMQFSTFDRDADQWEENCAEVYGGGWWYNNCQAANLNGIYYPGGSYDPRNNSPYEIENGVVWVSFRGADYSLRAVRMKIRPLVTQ
T2 sequence (P02675 45-491 partner limits assumed): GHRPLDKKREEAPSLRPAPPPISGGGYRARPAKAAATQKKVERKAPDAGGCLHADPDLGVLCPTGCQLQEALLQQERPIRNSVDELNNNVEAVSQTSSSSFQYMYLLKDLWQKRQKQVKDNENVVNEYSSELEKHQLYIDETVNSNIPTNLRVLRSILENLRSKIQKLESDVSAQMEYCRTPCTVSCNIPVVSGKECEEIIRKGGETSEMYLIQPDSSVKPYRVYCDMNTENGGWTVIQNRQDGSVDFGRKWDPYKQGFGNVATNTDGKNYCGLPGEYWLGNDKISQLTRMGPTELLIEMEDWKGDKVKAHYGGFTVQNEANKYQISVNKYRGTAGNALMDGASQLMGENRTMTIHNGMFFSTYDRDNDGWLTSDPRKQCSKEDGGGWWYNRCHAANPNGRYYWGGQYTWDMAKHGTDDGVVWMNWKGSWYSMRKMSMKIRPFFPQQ
T2 sequence (P02679 27-453 partner): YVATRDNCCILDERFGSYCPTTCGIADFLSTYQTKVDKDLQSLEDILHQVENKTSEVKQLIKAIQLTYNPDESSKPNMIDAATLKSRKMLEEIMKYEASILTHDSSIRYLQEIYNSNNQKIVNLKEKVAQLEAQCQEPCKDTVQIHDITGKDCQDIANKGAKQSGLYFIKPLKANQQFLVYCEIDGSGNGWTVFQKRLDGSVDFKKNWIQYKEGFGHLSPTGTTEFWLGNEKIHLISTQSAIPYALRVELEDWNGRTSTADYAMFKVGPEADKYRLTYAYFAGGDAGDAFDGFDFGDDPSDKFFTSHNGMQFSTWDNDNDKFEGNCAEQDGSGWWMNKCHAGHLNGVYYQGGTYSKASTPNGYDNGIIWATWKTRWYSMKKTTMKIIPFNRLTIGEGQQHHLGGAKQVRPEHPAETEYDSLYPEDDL
Experimental: The Multifunctional enzyme marker M200PRO detected the light scattering process, and the excitation light of the instrument was adjusted to 350 nm and the emission light to 350 nm. 3.3 μM of Fibrinogen in the control group, 3.3 μM of Fibrinogen and 2.5 U/ml of thrombin in the model group. The above systems were all set up in 20 mM Tris-HCl, pH 7.4, 150 mM NaCl ±[…] CaCl2 solution in a 100 μl/well (96-well plate). After 1 h of gel-like fibrin formation, 100 μl, 2 nM tissue plasminogen activator tPA and different doses of Fibrinogen like protein 1 (FGL1) were added. Kinetic curves were measured at 25° C. by detecting A350 absorption values every minute.
The control group was a reagent control, and the administered groups were 2 nM tissue plasminogen activator tPA, different doses of Fibrinogen like protein 1 (FGL1) alone groups, and groups in combination with other reagents. Kinetic curves were measured at 37° C. using a multifunctional enzyme marker M200PRO to detect the absorption values of the 510 nm excitation light every minute.
The Multifunctional enzyme marker M200PRO detected the light scattering process, and the excitation light of the instrument was adjusted to 350 nm and the emission light to 350 nm. […] Kinetic curves were measured at 25° C. by detecting A350 absorption values every minute. […]

fibrin aggregates [4] = biological target: T2, fibrin aggregates; assay: synergistic dissolving of fibrin aggregates with urokinase uPA; assay type: biochemical
fibrin [5] = biological target: T1, fibrin; assay: fibrin aggregation observed by scanning electron microscopy; assay type: biochemical; conditions: FIG. 12
mouse thrombus = mouse thrombus morphology observed by scanning electron microscopy; assay type: in vivo, mice; conditions: FIG. 14
aggregated fibrin = assay: cleavage of aggregated fibrin; assay type: biochemical; conditions: FIG. 27
From the text: Mutation of certain key sites in this protein's amino acid sequence can also enhance its function of inhibiting thrombosis.

Molecule	effect on fibrin aggregation (fibrin [1])	survival rate of mice [2]	dissolving fibrin aggregates together with tPA (fibrin aggregates [3])	dissolving fibrin aggregates together with urokinase uPA (fibrin aggregates [4]; 800 U/ml uPA plus different doses of FGL1)	structure of thrombus formed by fibrin aggregation (fibrin [5])	morphology of mouse thrombus (mouse thrombus)	dissolving fibrin aggregates together with urokinase uPA (fibrin aggregates [4]; 2800 U/ml uPA plus different doses of FD (800 U/ml in thrombus lysis))	cleavage of aggregated fibrin, mutant compared to unmutated form (aggregated fibrin)
FGL1: Fibrinogen like protein 1, amino acid sequence SEQ ID No. 1, expressed in eukaryotic cells; given as pcDNA3.1 expression plasmid in Example 6	inhibits fibrin aggregation	significantly increasing the survival rate of mice	synergistically dissolving fibrin aggregates	synergistically dissolving fibrin aggregates	–	–	–	–
FD: Fibrinogen structural domain protein of FGL1, positions 48-290 of SEQ ID No. 1 (SEQ ID No. 3) (protein) TVIDLGSKRQYADCSEIFNDGYKLSGFYKIKPLQSPAEFSVYCDMSDGGGWTVIQRRSDGSENFNRGWKDYENGFGNFVQKHGEYWLGNKNLHFLTTQEDYTLKIDLADFEKNSRYAQYKNFKVGDEKNFYELNIGEYSGTAGDSLAGNFHPEVQWWASHQRMKFSTWDRDHDNYEGNCAEEDQSGWWFNRCHSANLNGVYYSGPYTAKTDNGIVWYTWHGWWYSLKSVVMKIRPNDFIPNVI	inhibits fibrin aggregation	significant improvement of survival rate in mice	synergistically dissolving fibrin aggregates	–	becomes thinner and looser in structure	becomes thinner and looser in structure	synergistically dissolving fibrin aggregates	–
FD mutant: FD with tryptophan at key positions 204 and 269 mutated to alanine (protein) TVIDLGSKRQYADCSEIFNDGYKLSGFYKIKPLQSPAEFSVYCDMSDGGGWTVIQRRSDGSENFNRGWKDYENGFGNFVQKHGEYWLGNKNLHFLTTQEDYTLKIDLADFEKNSRYAQYKNFKVGDEKNFYELNIGEYSGTAGDSLAGNFHPEVQWAASHQRMKFSTWDRDHDNYEGNCAEEDQSGWWFNRCHSANLNGVYYSGPYTAKTDNGIVWYTWHGAWYSLKSVVMKIRPNDFIPNVI	–	–	–	–	–	–	–	significantly enhanced
